Among the data in PMC6750725 are stoichiometry N values, retold here.

For this experiment, the target named is A/equine/NY/49/73 H7N7 hemagglutinin (crystallization construct) (influenza A virus A/equine/NY/49/73 (H7N7)). Description: SEC.

Turning to “A/equine/NY/49/73 H7N7 hemagglutinin (crystallization construct) (natural protein)”, the stoichiometry N turned out to be 3.
